Literature values, collected in publication PMC12053642, “Oral PRI-002 treatment in patients with MCI or mild AD: a randomized, double-blind phase 1b trial” (Nature Communications, 2025).

B1: lecanemab: anti-amyloid therapeutic antibody, claimed to preferentially target soluble Aβ protofibrils (antibody, chains of the INN, looked up, V domains shown)
VH: EVQLVESGGGLVQPGGSLRLSCSASGFTFSSFGMHWVRQAPGKGLEWVAYISSGSSTIYYGDTVKGRFTISRDNAKNSLFLQMSSLRAEDTAVYYCAREGGYYYGRSYYTMDYWGQGTTVTVSS
VL: DVVMTQSPLSLPVTPGAPASISCRSSQSIVHSNGNTYLEWYLQKPGQSPKLLIYKVSNRFSGVPDRFSGSGSGTDFTLRISRVEAEDVGIYYCFQGSHVPPTFGPGTKLEIK

System: early AD patients
Parameters: ADAS-cog: dose or concentration left out as unconfirmed
Conditions: cited from earlier work; for deceleration of progression measured by CDR-SB versus placebo: over 18 months, on average
Description: After two decades of setbacks, the United States Food and Drug Administration (USFDA) full approvals for lecanemab[1] and donanemab[2] presents the beginning of a new decade for AD patients with several more drug candidates holding promise for marketing authorisation in the foreseeable future.

Row | Molecule | ADAS-Cog13 and CDR-SB (700 mg for the first 3 doses and 1400 mg thereafter i.v. every 4 weeks, after 12 weeks of treatment) | deceleration of progression measured by CDR-SB versus placebo | slowed decline on measures of cognition and function than placebo (early AD, at 18 months (CDR-SB, ADAS-cog14, ADCOMS, ADCS-MCI-ADL)) | ADAS-cog (from week 12, most prominent at 6 months)
1 | donanemab: anti-amyloid therapeutic antibody [reference compound] | significant improvement | up to 36% |  | 
2 | B1 |  | up to 36% | 27% | symptomatic improvement
